Reference: the supplement of paper PMC10598134
± gives the standard deviation.

Assay: collision cross section of unmodified peptide (TIMS, N2, iRT-aligned); higher = larger / more extended gas-phase ion
Procedure, shortened: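 Collision cross section values rest on the Mason-Schamp equation applied to calibrated, run-aligned mobility data from synthetic peptides. Mobility (1/K0) was calibrated with three reference ions and aligned per run to the median iRT peptide deviation, and 1–3 technical replicates of the most abundant feature per charge state were averaged. Data came from a timsTOF Pro/HT in dda-PASEF mode (nitrogen, ~2.4 mbar) after a 120-min nanoflow C18 gradient at 60 °C.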

For LAEEENKAK, the collision cross section (charge state: 2) was 348.48 ± 1.2 Å² and the collision cross section (charge state: 3) was 421.19 ± 4.7 Å².
LAEQEAHYAVR gave a collision cross section (charge state: 2) of 394.57 ± 1.1 Å² and a collision cross section (charge state: 3) of 471.99 ± 1.1 Å².
In the case of LAPEYEAAATR, the collision cross section (charge state: 2) is reported as 358.54 ± 0.15 Å² and the collision cross section (charge state: 3) is reported as 432.76 ± 0.89 Å².
For LDEKENLSAK, the collision cross section (charge state: 2) was 363.87 ± 1.4 Å² and the collision cross section (charge state: 3) was 445.27 ± 6.6 Å².
In the case of LDHLAEKFR, the collision cross section (charge state: 2) is reported as 365.36 ± 1.5 Å² and the collision cross section (charge state: 3) is reported as 453.05 ± 4 Å².
In the case of LDINTNTYTSQDLK, the collision cross section (charge state: 2) is reported as 418.99 ± 0.69 Å².
LDLSSLAYSGK gave a collision cross section (charge state: 2) of 363.06 ± 1.2 Å².
With LDYSDFQIVK the collision cross section (charge state: 2) was 368.99 ± 0.6 Å².
In the case of LEENHYNTYISK, the collision cross section (charge state: 2) is reported as 419.55 ± 1 Å² and the collision cross section (charge state: 3) is reported as 465.19 ± 1.2 Å².
Work on LEEVTGKLQVAR yielded a collision cross section (charge state: 2) of 400.35 ± 5.3 Å² and a collision cross section (charge state: 3) of 475.59 ± 4.3 Å².
With LEKDYQPGITFIVVQK the collision cross section (charge state: 2) was 447.32 ± 0.59 Å² and the collision cross section (charge state: 3) was 488.88 ± 0.86 Å².
LEKTIDDLEEK gave a collision cross section (charge state: 2) of 403.94 ± 1.9 Å² and a collision cross section (charge state: 3) of 470.73 ± 4.5 Å².
LELAQYR gave a collision cross section (charge state: 2) of 324.63 ± 0.15 Å².
Substance LEQVEKELLR has a collision cross section (charge state: 2) of 383.51 ± 1.5 Å² and a collision cross section (charge state: 3) of 455.22 ± 4.1 Å².
Work on LFVGGIKEDTEEHHLR yielded a collision cross section (charge state: 2) of 486.85 ± 3.6 Å² and a collision cross section (charge state: 3) of 544.82 ± 2.6 Å².
LGDVYVNDAFGTAHR gave a collision cross section (charge state: 2) of 434.69 ± 0.66 Å² and a collision cross section (charge state: 3) of 501.14 ± 0.88 Å².
In the case of LGGDLGTYVINK, the collision cross section (charge state: 2) is reported as 369.28 ± 0.16 Å².
In the case of LGHYATQLQK, the collision cross section (charge state: 2) is reported as 363.47 ± 0.14 Å² and the collision cross section (charge state: 3) is reported as 429.28 ± 0.3 Å².
LGILPVGRGK showed a collision cross section (charge state: 2) of 351.11 ± 0.11 Å² and a collision cross section (charge state: 3) of 438.91 ± 4.7 Å².
Work on LGNDFHTNKR yielded a collision cross section (charge state: 2) of 369.4 ± 1.5 Å² and a collision cross section (charge state: 3) of 431.93 ± 3.7 Å².
With LGNTISSLFGGGTTPDAK the collision cross section (charge state: 2) was 447.17 ± 0.13 Å².
Substance LGPNDQYK has a collision cross section (charge state: 2) of 325.88 ± 0.73 Å².
Work on LGPPGNPGPSGSPGPK yielded a collision cross section (charge state: 2) of 383.56 ± 0.58 Å² and a collision cross section (charge state: 3) of 453.1 ± 18 Å².
LGPPGNPGPSGSPGPKGQK gave a collision cross section (charge state: 2) of 422.18 ± 1.4 Å² and a collision cross section (charge state: 3) of 483.14 ± 1.2 Å².
For LGSASSSHGSIQESHK, the collision cross section (charge state: 3) was 509.47 ± 1.3 Å².
In the case of LGSPSGKTGTCR, the collision cross section (charge state: 2) is reported as 383.86 ± 1.2 Å² and the collision cross section (charge state: 3) is reported as 458.08 ± 4.7 Å².
Work on LGTTPSVYGGAGGRGIR yielded a collision cross section (charge state: 2) of 444.42 ± 1.7 Å² and a collision cross section (charge state: 3) of 523.45 ± 1.1 Å².
For LGVATVAKGVCGACK, the collision cross section (charge state: 2) was 433.92 ± 2.8 Å² and the collision cross section (charge state: 3) was 487.58 ± 4.2 Å².
With LGVPGLPGYPGR the collision cross section (charge state: 2) was 354.06 ± 0.41 Å².
LGVPGLPGYPGRQGPK showed a collision cross section (charge state: 2) of 416.71 ± 0.59 Å² and a collision cross section (charge state: 3) of 493.33 ± 24 Å².
For LLALSGPGGGRGR, the collision cross section (charge state: 2) was 381.45 ± 1.3 Å² and the collision cross section (charge state: 3) was 451.48 ± 1.9 Å².
LLEEEDSKLK showed a collision cross section (charge state: 2) of 382.28 ± 0.34 Å² and a collision cross section (charge state: 3) of 444.51 ± 4.2 Å².
LLEQKTQESQK gave a collision cross section (charge state: 2) of 394.71 ± 1.6 Å² and a collision cross section (charge state: 3) of 453.32 ± 3.2 Å².
LLFSNTAAQKLR showed a collision cross section (charge state: 2) of 416.62 ± 2.1 Å² and a collision cross section (charge state: 3) of 485.85 ± 3.4 Å².
LLIVSTTPYSEKDTK showed a collision cross section (charge state: 2) of 459.72 ± 2.9 Å² and a collision cross section (charge state: 3) of 510.79 ± 5.4 Å².
LLRGVGGSHGR gave a collision cross section (charge state: 2) of 358.18 ± 0.097 Å² and a collision cross section (charge state: 3) of 450.84 ± 3.9 Å².
For LNAIYQNNLTK, the collision cross section (charge state: 2) was 381.14 ± 0.16 Å².
In the case of LPEYPQVDDLLLR, the collision cross section (charge state: 2) is reported as 420.84 ± 0.76 Å².
LPPGALAHRLPTTGYLVYR gave a collision cross section (charge state: 3) of 556.45 ± 1.4 Å².
LPTTAASTPDAVDK gave a collision cross section (charge state: 2) of 396.7 ± 0.66 Å².
LQAAYAGDKADDIQK gave a collision cross section (charge state: 2) of 429.74 ± 2.5 Å² and a collision cross section (charge state: 3) of 497.53 ± 4.8 Å².
LQDVSGQLSSSKK showed a collision cross section (charge state: 2) of 403.09 ± 1.5 Å² and a collision cross section (charge state: 3) of 463.47 ± 6.3 Å².
For LQEKVESAQSEQK, the collision cross section (charge state: 2) was 416.22 ± 2.1 Å² and the collision cross section (charge state: 3) was 487.5 ± 6.9 Å².
Substance LQIASDENYK has a collision cross section (charge state: 2) of 357.85 ± 0.48 Å².
Work on LQLEIDQKK yielded a collision cross section (charge state: 2) of 366.48 ± 1.6 Å² and a collision cross section (charge state: 3) of 427.93 ± 3.7 Å².
Work on LQLGTPPPLLAARLVPPR yielded a collision cross section (charge state: 3) of 572.92 ± 0.68 Å².
LQNSYQPTNK gave a collision cross section (charge state: 2) of 358.91 ± 0.48 Å².
For LRQQLQAK, the collision cross section (charge state: 2) was 346.98 ± 0.88 Å² and the collision cross section (charge state: 3) was 414.5 ± 11 Å².
For LSEHATAPTR, the collision cross section (charge state: 2) was 353.05 ± 0.78 Å² and the collision cross section (charge state: 3) was 452.29 ± 0.22 Å².
For LSESHPDATEDLQR, the collision cross section (charge state: 3) was 474.77 ± 1.7 Å².
Substance LSFGLEDEPLETATK has a collision cross section (charge state: 2) of 426.44 ± 0.65 Å² and a collision cross section (charge state: 3) of 496.99 ± 0.21 Å².
With LSITGTYDLK the collision cross section (charge state: 2) was 371.61 ± 0.6 Å².
